# Measurements from patent US20110105397A1, “METHOD FOR TREATING HEART FAILURE WITH STRESSCOPIN-LIKE PEPTIDES” (priority 2009, published 2011).
# Where no end group is shown, it is not given here.
# T1: human corticotrophin releasing hormone receptor type 2 (CRHR2) (human, UniProt Q13324 1-411)
# T1 sequence (looked up): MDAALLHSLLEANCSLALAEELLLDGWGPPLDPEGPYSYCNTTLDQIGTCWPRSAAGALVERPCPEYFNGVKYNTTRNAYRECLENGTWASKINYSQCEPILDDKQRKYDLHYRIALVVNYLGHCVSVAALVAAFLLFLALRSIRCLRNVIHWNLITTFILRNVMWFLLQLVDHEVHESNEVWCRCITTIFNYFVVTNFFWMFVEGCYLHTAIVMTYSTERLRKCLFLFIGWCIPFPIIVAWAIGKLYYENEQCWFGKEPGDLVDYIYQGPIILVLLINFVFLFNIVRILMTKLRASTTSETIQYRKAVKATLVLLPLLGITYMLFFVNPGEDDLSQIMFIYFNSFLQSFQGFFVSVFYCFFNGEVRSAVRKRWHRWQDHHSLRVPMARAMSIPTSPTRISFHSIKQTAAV
# T2: human corticotrophin releasing hormone receptor type 2 (CRHR2) (human) (UniProt Q13324)
# T2 sequence (looked up): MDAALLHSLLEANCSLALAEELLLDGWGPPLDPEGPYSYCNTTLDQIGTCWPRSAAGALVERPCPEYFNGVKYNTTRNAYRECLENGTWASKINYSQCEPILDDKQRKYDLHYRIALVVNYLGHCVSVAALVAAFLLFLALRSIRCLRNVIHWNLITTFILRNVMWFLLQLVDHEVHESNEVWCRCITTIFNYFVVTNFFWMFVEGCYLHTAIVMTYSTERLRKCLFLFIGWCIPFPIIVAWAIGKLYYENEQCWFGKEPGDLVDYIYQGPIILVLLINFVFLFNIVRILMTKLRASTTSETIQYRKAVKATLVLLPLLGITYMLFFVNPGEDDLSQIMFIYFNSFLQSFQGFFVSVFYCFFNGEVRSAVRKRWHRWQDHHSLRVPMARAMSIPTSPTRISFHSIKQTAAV
# T3: human corticotrophin releasing hormone receptor type 1 (CRHR1) (human, UniProt P34998 24-415)
# T3 sequence (looked up): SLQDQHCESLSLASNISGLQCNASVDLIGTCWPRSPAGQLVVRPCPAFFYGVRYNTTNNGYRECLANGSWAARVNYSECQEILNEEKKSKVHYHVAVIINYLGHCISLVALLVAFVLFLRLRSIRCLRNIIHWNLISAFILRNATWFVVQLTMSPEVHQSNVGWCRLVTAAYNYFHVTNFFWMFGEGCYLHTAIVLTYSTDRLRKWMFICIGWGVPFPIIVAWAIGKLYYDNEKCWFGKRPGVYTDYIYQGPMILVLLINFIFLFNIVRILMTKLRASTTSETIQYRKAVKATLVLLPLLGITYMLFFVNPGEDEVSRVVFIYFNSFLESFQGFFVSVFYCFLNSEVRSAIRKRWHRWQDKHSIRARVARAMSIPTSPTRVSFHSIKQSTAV
# T4: human corticotrophin releasing hormone receptor type 1 (CRHR1) (human), P34998
# T4 chain: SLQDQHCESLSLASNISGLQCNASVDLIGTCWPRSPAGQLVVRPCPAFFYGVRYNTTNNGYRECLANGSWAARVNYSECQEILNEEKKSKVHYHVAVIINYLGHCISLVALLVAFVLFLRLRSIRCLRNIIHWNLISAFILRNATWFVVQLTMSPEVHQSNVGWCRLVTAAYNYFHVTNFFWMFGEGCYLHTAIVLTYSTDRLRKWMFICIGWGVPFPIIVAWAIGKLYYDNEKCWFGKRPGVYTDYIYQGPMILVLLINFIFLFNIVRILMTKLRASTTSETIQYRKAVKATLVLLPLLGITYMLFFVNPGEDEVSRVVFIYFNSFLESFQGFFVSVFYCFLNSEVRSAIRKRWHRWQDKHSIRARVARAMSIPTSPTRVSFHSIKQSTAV
# What was measured:
# [1] = target: T1, human corticotrophin releasing hormone …; experiment: cell-based or functional assay
# [2] = target: T1, human corticotrophin releasing hormone …; experiment: cell-based or functional assay; remark: listed apart in the source
# [3] = target: T2, human corticotrophin releasing hormone receptor type 2 (CRHR2) (human); experiment: cell-based or functional assay
# [4] = target: T3, human corticotrophin releasing hormone …; experiment: cell-based or functional assay
# [5] = target: T2, human corticotrophin releasing hormone receptor type 2 (CRHR2) (human); experiment: radioligand competition against [125I]-anti-sauvagine-30, CRHR2 membranes
# [6] = target: T3, human corticotrophin releasing hormone …; experiment: radioligand competition against [125I]-(Tyr0)-sauvagine, CRHR1 assay, cell membranes
# Protocol: Frozen cell pellets were defrosted on ice in 15 ml of assay buffer that was composed of 10 mM HEPES, 130 mM NaCl, 4.7 mM KCl, 5 mM MgCl₂, and 0.089 mM bacitracin at pH 7.2 and 21±3° Celsius. The solution was then homogenized with a Polytron tissue grinder at a setting of 10 and 7×3 s (Brinkmann Instruments, Westbury, N.Y.). The homogenate was centrifuged at 4° Celsius at 800×g for 5 min with the pellet being discarded. The supernatant was re-centrifuged at 26,892×g for 25 min at 4° Celsius with the final pellet being re-suspended in assay buffer. All binding assays were conducted in 96-well Multiscreen GF/B filter plates (Millipore, Billericay, Mass., U.S.A.) that were pre-soaked in assay buffer with 0.3% PEI for 1 hour. […]
# The bound radioactivity was separated by filtration using a Multiscreen Resist manifold (Millipore Corp., Billerica, Mass., U.S.A). The filters were washed three times with ice-cold PBS at pH 7.5 and radioactivity retained on the filters was quantified by its liquid scintillation measured by a TopCount counter (Packard BioScience, Boston, Mass., U.S.A). […]
# Data from individual competition curves were expressed as the percentage of specific [¹²⁵I]-anti-sauvagine-30 or)[¹²⁵I]-(Tyr⁰-sauvagine binding (B) within each experiment.
# [7] = target: T2, human corticotrophin releasing hormone receptor type 2 (CRHR2) (human); experiment: radioligand competition against [125I]-anti-sauvagine-30, membranes of SK-N-MC cells with human CRHR2
# [8] = target: T4, human corticotrophin releasing hormone …; experiment: radioligand competition against [125I]-(Tyr0)-sauvagine, CRHR1 assay, cell membranes; conditions: remark: other sources report otherwise
Binder,"fold decrease in potency against the amidated parent peptide, cAMP [1]",pA50 [2],"A50 (concentration required for 50% maximum effect), cAMP [3]",control pA50 across assay batches [3],pA50 [3],pA50 [4],pIC50 (low affinity state) [5],pKI [6],pKI [7],pKI [8]
TKFTLSLDVPTNIMNLLFNIAKAKNLRAQAAANAHLMAQI-OH [non-amidated h-SCP],~200 fold,7.1 -log10(M),,,,,,,,
TKFTLSLDVPTNIMNLLFNIAKAKNLRAQAAANAHLMAQI-NH2 (40-amino-acid peptide; also called h-SCP) [Human stresscopin with amidated C-terminus],,,0.4 nM,9.47 to 9.74 -log10(M),9.4 -log10(M),< 5 -log10(M),6.6 -log10(M),4.6 -log10(M),5.71 -log10(M),
FTLSLDVPTNIMNLLFNIAKAKNLRAQAAANAHLMAQI-NH2 [human urocortin III],,,,,9.26 -log10(M),< 5 -log10(M),,,6.49 -log10(M),4.96 -log10(M)
